Assay [1] deals with TolB (Escherichia coli) (UniProt P0A855). The following applies: cited from earlier work.
For assay [2] the target is unchanged. The following applies: cited from earlier work. The source holds these as a separate data set.
Assay [3] addresses TolB (E. coli) (UniProt P0A855). The experiment in a line: SPR. A general note: In SPR one partner is held on a chip, and binding of the other changes the refractive index at the surface.
Assay [4] has the same target. As to the kind of experiment: SPR. The source holds these as a separate data set.
The next assay has as its target Pal (Escherichia coli) (UniProt P0A912). The following applies: cited from earlier work.
The next assay has as its target TolB (E. coli, UniProt P0A855 22-430). As to the kind of experiment: SEC. (In general: SEC sorts molecules by how far they enter the pores of the column.)

Where two headings read alike, the source gives them in different places.

As for Colicin E9 (from UniProt P09883), the figures for the Kd with TolB (Escherichia coli) [1] and in the assay with TolB (Escherichia coli) [2] were 1 µM and 0.09 µM, respectively.
In the case of “TA_(1–107), 107-residue peptide of the translocation domain of colicin A (domain or fragment)”, the Kd (usually a measure of binding affinity in units of concentration) is 1.6 µM in the assay with TolB (E. coli) [3] and 24.3 µM with TolB (E. coli) [4].
TolB (from UniProt P0A855): the Kd in the assay with Pal (Escherichia coli) was 0.09 µM.

B1: Pal, soluble periplasmic domain (residues 65–173) (domain or fragment, E. coli, UniProt P0A912 65-173, looked up)
chain: LQQNNIVYFDLDKYDIRSDFAQMLDAHANFLRSNPSYKVTVEGHADERGTPEYNISLGERRANAVKMYLQGKGVSADQISIVSYGKEKPAVLGHDEAAYSKNRRAVLVY
As for B1, the binding result with TolB is “binds”.
